Here are results for 1 substance from paper doi:10.1101/2025.10.09.681077.

Holding throughout (experiment): partitioning into condensates
One experiment addresses PLPPR3 ICDΔ345 (UniProt Q7TPB0).
Experiment [1] concerns the target PLPPR3 ICDΔ345/Δ399 (double mutant) (UniProt Q7TPB0).
A further experiment addresses PLPPR3 ICDΔ399 (UniProt Q7TPB0).
For experiment [2], the target named is PLPPR3 intracellular domain (ICD), purification construct HA-M1-PLPPR3 ICD-His (UniProt Q7TPB0).

As to “alpha-actin (from UniProt P68032 1-377) (natural protein)”, the partition coefficient of G-actin into condensates, k actin (Cin/Cout) came out at 15.2 in the experiment with PLPPR3 ICDΔ345, 11.8 in experiment [1], 11.8 with PLPPR3 ICDΔ399 and 15.4 in experiment [2].
